Earlier results in paper PMC2766628.

Biological target: PEP 3BP1 element (UniProt Q9Y2R2)
Chain of UniProt Q9Y2R2 (Q9Y2R2 605-629): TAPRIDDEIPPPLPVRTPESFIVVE

Kd: 800 nM
Substance: Csk SH3 (from UniProt P41240)
